According to publication PMC8826447 (2022):

Biological target: ASF1 (Homo sapiens, UniProt Q9Y294)
Sequence (Q9Y294 whole entry): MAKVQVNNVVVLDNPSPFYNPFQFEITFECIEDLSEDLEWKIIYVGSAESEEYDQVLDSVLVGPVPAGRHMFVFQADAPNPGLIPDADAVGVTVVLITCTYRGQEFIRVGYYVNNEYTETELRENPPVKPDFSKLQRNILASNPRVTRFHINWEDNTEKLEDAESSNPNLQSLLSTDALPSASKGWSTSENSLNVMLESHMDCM

B1: TLK2 (protein)
chain: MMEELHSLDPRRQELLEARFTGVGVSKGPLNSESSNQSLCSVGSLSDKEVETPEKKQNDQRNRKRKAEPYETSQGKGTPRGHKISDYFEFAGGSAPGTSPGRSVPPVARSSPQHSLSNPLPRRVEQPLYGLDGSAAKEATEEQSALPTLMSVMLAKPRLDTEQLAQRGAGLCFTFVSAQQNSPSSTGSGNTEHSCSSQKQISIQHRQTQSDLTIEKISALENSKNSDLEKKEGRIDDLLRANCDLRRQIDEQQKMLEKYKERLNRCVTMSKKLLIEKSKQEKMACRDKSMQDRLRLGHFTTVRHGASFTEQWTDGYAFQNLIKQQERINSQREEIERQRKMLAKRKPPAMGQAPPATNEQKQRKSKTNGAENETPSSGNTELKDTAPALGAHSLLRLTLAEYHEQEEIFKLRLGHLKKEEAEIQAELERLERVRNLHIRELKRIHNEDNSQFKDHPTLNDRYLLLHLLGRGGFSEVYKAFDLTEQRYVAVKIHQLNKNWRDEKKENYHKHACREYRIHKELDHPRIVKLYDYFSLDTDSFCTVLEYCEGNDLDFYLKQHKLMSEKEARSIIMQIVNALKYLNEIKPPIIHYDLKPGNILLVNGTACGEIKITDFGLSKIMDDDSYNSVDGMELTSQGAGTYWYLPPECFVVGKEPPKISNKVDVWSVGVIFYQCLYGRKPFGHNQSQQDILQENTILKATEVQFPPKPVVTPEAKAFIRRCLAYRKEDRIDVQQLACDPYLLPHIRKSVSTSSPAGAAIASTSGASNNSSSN
Binder B1 has a Kd of about 2 µM.
